According to patent US20170355774A1 (Regeneron, published 2017):
Where a chain is given by its changes, count along the chain named. In names and notes the source's numbering stands. Each block holds one binder with its values, some of them ahead of it.

Experiments:
[1] = target: T1, human GITR (amino acids M1-V241, NCBI Accession #NP_004186.1) expressed on cells (human, UniProt Q9Y5U5 26-241); assay: ECL cell binding, hGITR/HEK293-D9
T1 construct: also called hGITR; hGITR/HEK293-D9
T1 sequence: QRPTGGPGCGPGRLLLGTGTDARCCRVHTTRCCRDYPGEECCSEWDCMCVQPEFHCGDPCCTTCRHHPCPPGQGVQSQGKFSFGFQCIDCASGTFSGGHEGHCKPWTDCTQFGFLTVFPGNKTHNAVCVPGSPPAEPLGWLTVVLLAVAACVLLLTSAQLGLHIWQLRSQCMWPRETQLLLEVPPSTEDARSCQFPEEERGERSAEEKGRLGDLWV
Experimental: Nonspecific binding sites were blocked with 2% BSA (w/v)+PBS for 1 h at room temperature (RT). Next, serial dilutions of anti-GITR antibodies, ranging from 1.7 pM to 100 nM, were added to cells for 1 h at RT. Plates were then washed to remove unbound antibodies (AquaMax2000 plate washer, MSD Analytical Technologies) and plate-bound antibodies were detected with a SULFO-TAG™ conjugated anti-human kappa light chain IgG antibody (Jackson Immunoresearch) for 1 h at RT.
Following washes, luminescent signals were recorded with a SECTOR Imager 6000 (MSD) instrument. Direct binding signals (relative light units, RLU) were analyzed as a function of the antibody concentration and data were fitted with a sigmoidal (four-parameter logistic) dose-response model using GraphPad Prism™ software. […] The signal detected with 100 nM antibody binding to the hGITR expressing cells versus parental cells was recorded as an indication of intensity and specificity of GITR binding.

[2] = target: T1, human GITR (amino acids M1-V241, NCBI …); assay: cell-based or functional assay
[3] = target: T1, human GITR (amino acids M1-V241, NCBI …); assay: cell-based or functional assay; remark: listed apart in the source
[4] = target: T2, mfGITR.mmh (Macaca fasicularis); assay: SPR 37C, mAb capture
T2 construct: soluble monomeric construct; also called Macaca fasicularis (mf) GITR.mmh; cynomolgus GITR protein
T2 chain: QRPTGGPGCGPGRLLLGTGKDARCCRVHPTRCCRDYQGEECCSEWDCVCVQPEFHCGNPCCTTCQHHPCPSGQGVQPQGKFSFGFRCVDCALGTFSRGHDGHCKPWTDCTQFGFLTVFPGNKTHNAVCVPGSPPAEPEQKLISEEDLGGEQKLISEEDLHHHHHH
Experimental: (§1) (Table 3). […] GITR proteins were injected over the sensor surface at a flow rate of 30 μL/minute. All Biacore binding studies were performed in a buffer composed of 0.01M HEPES pH 7.4, 0.15M NaCl, 3 mM EDTA, 0.05% v/v Surfactant P20 (HBS-ET running buffer). Antibody-reagent association was monitored for 4 minutes while dissociation in HBS-ET running buffer (10 mM HEPES, 150 mM NaCl, 3 mM EDTA, 0.05% (v/v) Surfactant P20, pH 7.4) was monitored for 10 minutes. Kinetic association (kₐ) and dissociation (kd) rate constants were determined by fitting the real-time sensorgrams to a 1:1 binding model using Scrubber 2.0c curve fitting software. Binding dissociation equilibrium constants (KD) and dissociative half-lives (t ½) were calculated from the kinetic rate constants as: KD [M]=kd/kₐ; and t_{1/2}(min)=(ln 2/(60*kd). Results are summarized in Table 3.

[5] = target: T3, hGITR.mFc (human); assay: SPR 37C, mAb capture
T3 construct: soluble dimeric construct with mouse Fc; also called dimeric human GITR
T3 chain: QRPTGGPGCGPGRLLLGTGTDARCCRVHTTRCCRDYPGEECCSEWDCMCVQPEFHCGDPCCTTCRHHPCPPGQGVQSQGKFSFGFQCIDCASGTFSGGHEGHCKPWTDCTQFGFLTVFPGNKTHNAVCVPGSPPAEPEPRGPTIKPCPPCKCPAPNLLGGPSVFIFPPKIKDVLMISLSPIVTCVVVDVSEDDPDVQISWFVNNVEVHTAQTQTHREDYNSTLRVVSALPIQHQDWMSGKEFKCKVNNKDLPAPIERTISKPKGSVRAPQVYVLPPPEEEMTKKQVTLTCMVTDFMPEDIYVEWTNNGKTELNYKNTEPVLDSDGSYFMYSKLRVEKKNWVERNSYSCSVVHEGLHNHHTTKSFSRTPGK
Experimental: as §1

[6] = target: T4, hGITR.mmh (human); assay: SPR 37C, mAb capture
T4 construct: soluble monomeric construct; also called human (h) GITR.mmh; monomeric human GITR
T4 chain: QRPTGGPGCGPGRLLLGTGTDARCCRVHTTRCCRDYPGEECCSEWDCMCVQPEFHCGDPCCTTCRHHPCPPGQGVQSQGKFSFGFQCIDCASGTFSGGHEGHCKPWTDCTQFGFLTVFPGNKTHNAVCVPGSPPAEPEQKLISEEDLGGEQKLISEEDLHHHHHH
Experimental: as §1

[7] = target: T1, human GITR (amino acids M1-V241, NCBI …); assay: cell-based or functional assay; remark: listed apart in the source
[8] = target: T1, human GITR (amino acids M1-V241, NCBI …); assay: cell-based or functional assay; remark: listed apart in the source

B1: H4H14521P (antibody, human IgG4, V domains shown)
VH: EVQLVESGGGLVQPGGSLRLSCAASGFTFRVYEMNWVRQAPGKGLEWISYIGSSGFTIYYADSVKGRFTISRDNAKNSLFLQLNSLRAEDTAVYYCARGWNDGVPNYLGMDVWGQGTTVTVSS
VL: DIQMTQSPSSLSASVGDRVTITCQASQDINKYLNWYQQKPGKAPKLLIYDASNLETGVPSRFSGSGSGTDFTFTISSLQPEDIARYHCQQYDKIPLTFGGGTKVEIK
notes: human IgG4 (H4H)
Average Signal (RLU) at 100 nM [1]: 10100 RLU
EC50 [1]: 0.43 nM
% Activation, NF-kB-Luc, non-anchored [2]: 50%
% Blocking, NF-kB-Luc, non-anchored [2]: 60%
EC50, hGITR activation, NF-kB-Luc, non-anchored [2]: 0.4 nM
IC50, blocking of hGITRL stimulation, NF-kB-Luc, non-anchored [2]: 3.8 nM
fold activation, T-cell proliferation, 33 nM, FcgR anchored, donor 1 [3]: 1.5 fold
fold activation, T-cell proliferation, 33 nM, FcgR anchored, donor 2 [3]: 1.1 fold
fold activation, T-cell proliferation, 33 nM, FcgR anchored, donor 3 [3]: 1.1 fold
fold activation, T-cell proliferation, 33 nM, FcgR anchored, donor 4 [3]: 1.7 fold
fold activation, T-cell proliferation, 33 nM, FcgR anchored, donor 5 [3]: 0.9 fold
fold activation, T-cell proliferation, 33 nM, FcgR anchored, mean [3]: 1.2 fold
Kd [4]: 20.1 nM
koff [4]: 0.00334 s⁻¹
kon [4]: 166000 M⁻¹ s⁻¹
t½ [4]: 3.5 min
Kd [5]: 0.389 nM
koff [5]: 0.000479 s⁻¹
kon [5]: 1.23e+06 M⁻¹ s⁻¹
t½ [5]: 24.1 min
Kd [6]: 22.7 nM
koff [6]: 0.00784 s⁻¹
kon [6]: 345000 M⁻¹ s⁻¹
t½ [6]: 1.5 min
fold activation, T-cell proliferation, plate-bound Ab 10.6 nM, donor 1 [7]: 1 fold
fold activation, T-cell proliferation, plate-bound Ab 10.6 nM, donor 2 [7]: 4 fold
fold activation, T-cell proliferation, plate-bound Ab 10.6 nM, donor 3 [7]: 4 fold
fold activation, T-cell proliferation, plate-bound Ab 10.6 nM, donor 4 [7]: 5 fold
fold activation, T-cell proliferation, plate-bound Ab 10.6 nM, donor 5 [7]: 4 fold
fold activation, T-cell proliferation, plate-bound Ab 10.6 nM, donor 6 [7]: 12 fold
fold activation, T-cell proliferation, plate-bound Ab 10.6 nM, donor 7 [7]: 3 fold
fold activation, T-cell proliferation, plate-bound Ab 10.6 nM, donor 8 [7]: 2 fold
fold activation, T-cell proliferation, plate-bound Ab 10.6 nM, mean [7]: 4 fold
fold activation, T-cell proliferation, 22 nM, non-anchored, donor 1 [8]: 0.5 fold
fold activation, T-cell proliferation, 22 nM, non-anchored, donor 2 [8]: 1.2 fold
fold activation, T-cell proliferation, 22 nM, non-anchored, donor 3 [8]: 0.8 fold
fold activation, T-cell proliferation, 22 nM, non-anchored, donor 4 [8]: 1 fold
fold activation, T-cell proliferation, 22 nM, non-anchored, mean [8]: 0.9 fold

B2: H4H14476P (antibody, human IgG4, V domains shown)
VH: QVQLVESGGGVVQPGRSLRLSCAASGFTFSNYGIHWVRQPPGQGLEWVAVIWYAGSNKFYADSVKGRFTISRDNSKNSAYLQMNSLRAEDTAVYYCARAPLGYYYYGMDVWGQGTTVTVSS
VL: DIQMTQSPSSLSASVGDRVTITCRASQGIRNDLGWYQQKPGKAPKRLIYDASSLESGVPSRFSGSGSGTEFTLTISSLQPEDFATYYCLQHNSYPWTFGQGTKVEIK
notes: human IgG4 (H4H)
Average Signal (RLU) at 100 nM [1]: 8120 RLU
EC50 [1]: 0.57 nM
% Activation, NF-kB-Luc, non-anchored [2]: 10%
% Blocking, NF-kB-Luc, non-anchored [2]: 90%
EC50, hGITR activation, NF-kB-Luc, non-anchored [2]: 1 nM
IC50, blocking of hGITRL stimulation, NF-kB-Luc, non-anchored [2]: 2.6 nM
fold activation, T-cell proliferation, 33 nM, FcgR anchored, donor 1 [3]: 0.6 fold
fold activation, T-cell proliferation, 33 nM, FcgR anchored, donor 2 [3]: 0.2 fold
fold activation, T-cell proliferation, 33 nM, FcgR anchored, donor 3 [3]: 0.8 fold
fold activation, T-cell proliferation, 33 nM, FcgR anchored, donor 4 [3]: 0.8 fold
fold activation, T-cell proliferation, 33 nM, FcgR anchored, donor 5 [3]: 0.1 fold
fold activation, T-cell proliferation, 33 nM, FcgR anchored, mean [3]: 0.5 fold
Kd [4]: 55.8 nM
koff [4]: 0.0107 s⁻¹
kon [4]: 191000 M⁻¹ s⁻¹
t½ [4]: 1.1 min
Kd [5]: 0.297 nM
koff [5]: 0.000269 s⁻¹
kon [5]: 906000 M⁻¹ s⁻¹
t½ [5]: 42.9 min
Kd [6]: 31.4 nM
koff [6]: 0.0123 s⁻¹
kon [6]: 392000 M⁻¹ s⁻¹
t½ [6]: 0.9 min
fold activation, T-cell proliferation, 22 nM, non-anchored, donor 1 [8]: 0.7 fold
fold activation, T-cell proliferation, 22 nM, non-anchored, donor 2 [8]: 0.9 fold
fold activation, T-cell proliferation, 22 nM, non-anchored, donor 3 [8]: 0.9 fold
fold activation, T-cell proliferation, 22 nM, non-anchored, donor 4 [8]: 0.8 fold
fold activation, T-cell proliferation, 22 nM, non-anchored, mean [8]: 0.8 fold

B3: H1H14486P (antibody, human IgG1, V domains shown)
VH: QVQLVESGGGVVQPGRSLRLSCAASGFTFSNYGMHWVRQAPGKGLEWVAVIWYPGSNKFYTDSVEGRFTISRDNSKNTVYLQMDSLRAEDTAVYYCARGGALGVDYYYGMDVWGQGTTVTVSS
VL: B2 VL with D1A, I21L, K45N, R46F, D50S, E55Q, E70D, H91N, N92Y, S93N
notes: human IgG1 (H1H)
Average Signal (RLU) at 100 nM [1]: 5830 RLU
EC50 [1]: 0.43 nM
% Activation, NF-kB-Luc, non-anchored [2]: 30%
% Blocking, NF-kB-Luc, non-anchored [2]: 50%
EC50, hGITR activation, NF-kB-Luc, non-anchored [2]: 1.2 nM
IC50, blocking of hGITRL stimulation, NF-kB-Luc, non-anchored [2]: 1.1 nM
Kd [4]: 122 nM
koff [4]: 0.0166 s⁻¹
kon [4]: 137000 M⁻¹ s⁻¹
t½ [4]: 0.7 min
Kd [5]: 0.159 nM
koff [5]: 0.000153 s⁻¹
kon [5]: 965000 M⁻¹ s⁻¹
t½ [5]: 75.5 min
Kd [6]: 2.79 nM
koff [6]: 0.00123 s⁻¹
kon [6]: 439000 M⁻¹ s⁻¹
t½ [6]: 9.4 min

Stronger by EC50 [1], values ahead:

Average Signal (RLU) at 100 nM [1]: 7220 RLU
EC50 [1]: 0.3 nM
% Activation, NF-kB-Luc, non-anchored [2]: 25%
% Blocking, NF-kB-Luc, non-anchored [2]: 90%
EC50, hGITR activation, NF-kB-Luc, non-anchored [2]: 1.2 nM
IC50, blocking of hGITRL stimulation, NF-kB-Luc, non-anchored [2]: 0.6 nM
Kd [4]: 1400 nM
koff [4]: 0.014 s⁻¹
kon [4]: 10000 M⁻¹ s⁻¹
t½ [4]: 0.8 min
Kd [5]: 0.365 nM
koff [5]: 0.000191 s⁻¹
kon [5]: 524000 M⁻¹ s⁻¹
t½ [5]: 60.4 min
Kd [6]: 13.4 nM
koff [6]: 0.0025 s⁻¹
kon [6]: 186000 M⁻¹ s⁻¹
t½ [6]: 4.6 min
B4: H1H14493P (antibody, human IgG1, V domains shown)
VH: QVQLVESGGGVVQPGRSLRLSCAASGFNFRSYGMHWVRQAPGKGLEWVAVIWYDGSNKYYADSVKGRFTISRDSSRDTLFLQMNSLRAGDTAVYYCARGGMLGRDYYYGMDVWGQGTTVTVSS
VL: B2 VL with D50A, E55Q, W96N, V104L
notes: human IgG1 (H1H)

Average Signal (RLU) at 100 nM [1]: 6450 RLU
EC50 [1]: 0.24 nM
% Activation, NF-kB-Luc, non-anchored [2]: 10%
% Blocking, NF-kB-Luc, non-anchored [2]: 80%
EC50, hGITR activation, NF-kB-Luc, non-anchored [2]: 1.1 nM
IC50, blocking of hGITRL stimulation, NF-kB-Luc, non-anchored [2]: 0.9 nM
Kd [4]: 85.9 nM
koff [4]: 0.0171 s⁻¹
kon [4]: 199000 M⁻¹ s⁻¹
t½ [4]: 0.7 min
Kd [5]: 0.537 nM
koff [5]: 0.000583 s⁻¹
kon [5]: 1.09e+06 M⁻¹ s⁻¹
t½ [5]: 19.8 min
Kd [6]: 63 nM
koff [6]: 0.0167 s⁻¹
kon [6]: 266000 M⁻¹ s⁻¹
t½ [6]: 0.7 min
B5: H1H14520P (antibody, human IgG1, V domains shown)
VH: QVQLVESGGGVVQPGRSLRLSCAASGFTFSSFGMHWVRQAPGKGLEWVAVISYDGRNRYYADSVKGRFTISRDNSKNTLYLQMNSLSAEDTAMFYCAKDGFGNSFDYWGQGTLVTVSS
VL: DVVMTQSPLSLPVTLGQPASISCRSSQSLLYSDGNTYLTWFQQRPGQSPRRLIYKVSNRDSGVPDRFSGSGSGTDFTLTISRVEAEDVGIYYCMQGTHWPWTFGQGTKVEIK
notes: human IgG1 (H1H)
